In the RNAGym collection of RNA variant scans (doi:10.1073/pnas.2313332121):

B1: TPR t1 (parent)
chain: GACCAAUCUGCCCUCAGAGCUCGAGAACAUCUUCGGAUGCAGAGGAGGCAGGCUUCGGUGGCGCGAUAGCGCCAACGUCCUCAACCUCCAAUGCAUCCCACCACAUGAUGAUGCCUGAAGAGCCUUGGUUUUUUG

Variants of: B1
Assay: polymerase ribozyme fitness, log enrichment relative to wild type (log ratio); higher = more active; in vitro selection for triplet polymerase activity
Outline: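 Mutant libraries for each subunit of a heterodimeric triplet polymerase ribozyme were made by PCR and then transcribed. Each library underwent one round of in vitro selection in triplicate: annealing with a biotinylated primer, the partner subunit and triplets, frozen incubation at −7 °C, gel excision of extended constructs, streptavidin-bead capture and RT-PCR. Input and output libraries were Illumina-sequenced, and only genotypes with ≥10 input reads and ≥1 read per output were kept. Fitness is the logarithm, base 2, of genotype enrichment over wild-type enrichment, computed from inverse-variance-weighted replicate averages.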

Variant | polymerase ribozyme fitness (log ratio)
C13A G23U G61C C88U C98G U112A G113A | -5.88
C13A G36A C72U A121C G127U | -0.199
C13A G36C G60U A66U A95C | -6.15
C13A G39C G120A | -0.0336
C13A G39C U59G C104U | -1.47
C13A G39U C56A | -2.45
C13A G42A G77U U131C | -3.87
C13A G44C C56U C124A | 0.969
C13A G47A | -2.5
C13A G51U | -5.64
C13A G52A G128C | -4.3
C13A G57C C85G C123U | -1.45
C13A G58C | -1.37
C13A G60C A84G | -2.96
C13A G60U A91U G120A | -2.31
C13A G61A A66U A121U U129G | -0.637
C13A G61A C82U C124U | -0.178
C13A G61C | -1.81
C13A G61U A91U | -2.53
C13A G63A | -2.44
C13A G71A G120A A121U | -0.704
C13A G110C | -4.52
C13A G120A | -0.19
C13A U32C A100C | -2.75

Variant | polymerase ribozyme fitness (log ratio)
C13A U38A C53U C89A | -4.39
C13A U106A G110A | -2.53
C13A U112A | -0.401
C13A U129A | -2.8
C13G A16C C85G A121C | -3.75
C13G A26C C40U C79U C85U G120C | -6.15
C13G A26U G47A C82U | -5.11
C13G A37C U112C | -0.647
C13G A37G A41C A121U | -0.739
C13G A37G G48C | -3.17
C13G A37U U38C C62U | -4.23
C13G A41C C97A C115A G128A | -7.05
C13G A43G | -3.37
C13G A43U C101U | -3.57
C13G A50G G51C G57U A74U | -3.43
C13G A50G G71A U106A C124A G127U | -0.731
C13G A50U G61U | -3.51
C13G A66U | -2.18
C13G A83C A121G | 1.65
C13G A83U A95C G110A G120U | -3.42
C13G A90U C124U U129C | -3.28
C13G A108G | -3.4
C13G A119U | 0.114
C13G C15A A18C C79U G120U | -2.11

Variant | polymerase ribozyme fitness (log ratio)
C13G C15A U106A C123A | -1.05
C13G C22A G45U G77A A111U | -6.13
C13G C28G G42C | -6.24
C13G C34G | -5.23
C13G C40A G63C G117U U133G | -6.59
C13G C40G C123G | -0.377
C13G C40U G47C C62U U78A | -3.84
C13G C49G | -2.28
C13G C53A | -1.86
C13G C53G C115A | -1.47
C13G C53G G63A | -2.67
C13G C56A | -1.9
C13G C56A A74G C101G U112C U130A | -3.67
C13G C62G G117C | -8.19
C13G C62U A100C U112C | -1.47
C13G C64U | -0.666
C13G C72U | -1.8
C13G C73U U78C A121C | -0.0893
C13G C82A C102A U130G | -4.93
C13G C85U | -2.91
C13G C86G A90C A95G | -4.51
C13G C88A U130G | -3.24
C13G C98U | -2.7
C13G C101A | -2.61

Variant | polymerase ribozyme fitness (log ratio)
C13G C104A G110U | -6.08
C13G C104U | -0.77
C13G C104U C123A U125G | 0.46
C13G C114U | -2.83
C13G C124A | 1.06
C13G C124G | 0.288
C13G C124G U126A U131A | -0.0429
C13G G17U C64U G93C | -4.19
C13G G23U A29C G69A C97A U112G U126G | -6.55
C13G G42U | -2.84
C13G G42U C53A U87C C88U A121C C123A | -0.648
C13G G45U C82U G113A | -2.94
C13G G47A U54C | -2.54
C13G G47U | -3.12
C13G G47U C49U C73A | -3.52
C13G G48A C73A | -1.93
C13G G48U | -2.21
C13G G48U C53A | -2.34
C13G G51A | -4.69
C13G G51C C104U G120C | -4.18
C13G G51U C72G A111C | -6.15
C13G G52U A68G A111C C124U U133C | -4.14
C13G G52U A75G | -3.6
C13G G52U C70U C123A | -1.13

Variant | polymerase ribozyme fitness (log ratio)
C13G G60U G93A C104U U129A | -4.29
C13G G63C C70A C124A | 0.905
C13G G63U C102A | -5.61
C13G G63U C123A | -0.659
C13G G69A | -3.66
C13G G69A U132A | -3.7
C13G G69C C94U C115U G135A | -3.43
C13G G71A G128U | -4.42
C13G G71C A84G C104A U109G G117U C124A U130G | -6.92
C13G G71U U112C | -0.426
C13G G113A | -2.45
C13G G127A | -2.49
C13G G128C | -3.48
C13G U21A G52C G61U A91C G120C | -2.36
C13G U32C C85G | -4
C13G U59A A91U C115U | -4.42
C13G U78G | -2.05
C13G U81C | -1.96
C13G U106C | -2.21
C13G U112A G113A | -2.13
C13G U132A | -1.5
C13U A18C A37C C49U A121C | -2.39
C13U A18C U55G G93U | -2.65
C13U A18U G42C U87A | -0.601

Variant | polymerase ribozyme fitness (log ratio)
C13U A26G G58A | -3.1
C13U A27U C79A | -3.24
C13U A29C C56U | -2.25
C13U A29C G61U | -2.08
C13U A37G G47A G57C G71C | -1.61
C13U A37U C64G G93C A105U G110U U129G | -7.07
C13U A37U C64U U92A U126C | -3.51
C13U A43C A50U C73U C86U U96G A108U G117U | -6.8
C13U A46U | -0.902
C13U A50U A66G C88U A90U U109A U116C | -5.37
C13U A50U G52C C53A U87A | -3.76
C13U A66U C70U C72G C88U G120A U126C | -4.41
C13U A74U G93C G113A | -1.26
C13U A83C U112C | 1.79
C13U A84U G113U U116A A119G G135U | -6.59
C13U A108G G120A | -1.12
C13U A121C | 1.84
C13U C15A G63C | -4.06
C13U C15G A50G G61A | -1.6
C13U C15G G57U G93A G117A | -1.62
C13U C15U A37U A41U U59G | -1.74
C13U C20A U38G | -4.15
C13U C20G G63C | -4.8
C13U C22A A26C C56G G122A | -4.98

Variant | polymerase ribozyme fitness (log ratio)
C13U C28G C53G U78G C88A U106A G110A A111G | -1.49
C13U C28G G63U C98U C115U | -5.89
C13U C34A C70A U106A C114A | -6.64
C13U C34A G71C A121U | -2.27
C13U C34A U54A U78C U112A G122C | -3.05
C13U C34U A111C C124U | -5.41
C13U C40A | -0.359
C13U C40A C82A C89A | -2.38
C13U C40A G61A | -0.491
C13U C40A G120A U131G | -0.101
C13U C40G G42A C79A | -4.76
C13U C40U | -0.246
C13U C40U A43G G52U G58C A91C | -2.35
C13U C49U | -0.549
C13U C53G C56A G65A | -7.29
C13U C56G | 0.205
C13U C56G U59G A95C | -2.3
C13U C56U G60C C73A | -0.677
C13U C56U U92C C114A | -1.92
C13U C62G U130C G135U | -1.67
C13U C62U G63C U112A | -0.823
C13U C64U | 0.138
C13U C70A | -0.46
